According to IntAct's records for PubMed 20972459:

B1: WW domain-binding protein 2 (Homo sapiens), Q969T9 (parent)
chain: MALNKNHSEGGGVIVNNTESILMSYDHVELTFNDMKNVPEAFKGTKKGTVYLTPYRVIFLSKGKDAMQSFMMPFYLMKDCEIKQPVFGANYIKGTVKAEAGGGWEGSASYKLTFTAGGAIEFGQRMLQVASQASRGEVPSGAYGYSYMPSGAYVYPPPVANGMYPCPPGYPYPPPPPEFYPGPPMMDGAMGYVQPPPPPYPGPMEPPVSGPDVPSTPAAEAKAAEAAASAYYNPGNPHNVYMPTSQPPPPPYYPPEDKKTQ

Variants of: B1
Settings: with wwtr1_human WWTR1, Q9GZV5
wwtr1_human WWTR1, Q9GZV5, sequence (Q9GZV5 whole entry): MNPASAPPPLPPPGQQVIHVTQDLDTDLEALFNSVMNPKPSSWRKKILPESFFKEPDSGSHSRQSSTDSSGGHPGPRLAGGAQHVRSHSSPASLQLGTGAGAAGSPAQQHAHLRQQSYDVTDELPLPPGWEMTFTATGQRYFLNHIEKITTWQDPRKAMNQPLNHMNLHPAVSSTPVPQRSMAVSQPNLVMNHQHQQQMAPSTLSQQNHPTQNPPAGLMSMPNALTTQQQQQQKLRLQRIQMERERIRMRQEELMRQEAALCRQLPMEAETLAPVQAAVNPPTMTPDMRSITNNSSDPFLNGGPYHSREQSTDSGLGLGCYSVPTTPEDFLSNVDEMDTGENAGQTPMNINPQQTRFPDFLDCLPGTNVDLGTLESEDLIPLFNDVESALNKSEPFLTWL

effect of a mutation on the interaction | Variant
disrupting interaction | Y200A
